pEC50: −log10 of the molar value. Ends that are not written are not given here.
Experiments:
Assay type in all cases: cell-based
[1] = molecular target: T1, human GLP-1 receptor (hGLP-1r) (Homo sapiens, UniProt P43220); assay: BSA-cAMP assay, cells expressing human GLP-1 receptor; details: BSA-cAMP assay; batch 1 unless a batch is given; read-out: cAMP activity hGLP1r (EC50)
T1 construct: expressed in transfected cells
Procedure: (§1) One basic cAMP assays was performed, differing in the medium used for the assay, the “BSA-cAMP assay”:
(§2) BSA-based assay medium: 0.1% bovine serum albumin (BSA) in
(§3) In certain aspects, the assay can also be carried out in medium supplemented with serum albumin that corresponds to the receptor being tested, e.g., human serum albumin for testing cAMP activity at hGIPr or hGLP-1r, rat serum albumin for testing cAMP activity at rGIPr or rGLP-1r, and so on. […] All sample dilutions were made in duplicate.
(§4) A frozen cryo-vial of cells expressing the receptor of interest was thawed rapidly in a water-bath, transferred to pre-warmed assay media and spun at 240×g for 5 minutes. Cells were re-suspended in assay buffer at an optimized concentration (e.g., hGLP-1r and hGIPr cells at 0.5×10^5 cells/ml).
(§5) To this, 5 μL cell suspension was added and the plates incubated at room temperature for 30 minutes.
(§6) cAMP levels were measured using a commercially available cAMP dynamic 2 HTRF kit (Cisbio, Cat #62AM4PEJ), following the two step protocol as per manufacturer's recommendations. In brief; anti-cAMP cryptate (donor fluorophore) and cAMP-d2 (acceptor fluorophore) were made up separately by diluting each 1/20 in conjugate & lysis buffer provided in the kit. 5 μL anti-cAMP cryptate was added to all wells of the assay plate, and 5 μL cAMP-d2 added to all wells except non-specific binding (NSB) wells, to which conjugate and lysis buffer was added. […] Data was transformed to % Delta F as described in manufacturer's guidelines and then transformed to percent activation of maximal native agonist response and analysed by 4-parameter logistic fit to determine EC50 values.
(§7) We used unconstrained 4 parameter logistic fit of data, curve mid-point to determine EC50. This was tested on two occasions, not two batches.

[2] = molecular target: T2, human GIP receptor (hGIPr) (Homo sapiens, UniProt P48546); assay: BSA-cAMP assay, cells expressing human GIP receptor; details: BSA-cAMP assay; batch 1 unless a batch is given; read-out: cAMP activity hGIPr (EC50)
T2 construct: expressed in transfected cells
T2 sequence (P48546 22-466): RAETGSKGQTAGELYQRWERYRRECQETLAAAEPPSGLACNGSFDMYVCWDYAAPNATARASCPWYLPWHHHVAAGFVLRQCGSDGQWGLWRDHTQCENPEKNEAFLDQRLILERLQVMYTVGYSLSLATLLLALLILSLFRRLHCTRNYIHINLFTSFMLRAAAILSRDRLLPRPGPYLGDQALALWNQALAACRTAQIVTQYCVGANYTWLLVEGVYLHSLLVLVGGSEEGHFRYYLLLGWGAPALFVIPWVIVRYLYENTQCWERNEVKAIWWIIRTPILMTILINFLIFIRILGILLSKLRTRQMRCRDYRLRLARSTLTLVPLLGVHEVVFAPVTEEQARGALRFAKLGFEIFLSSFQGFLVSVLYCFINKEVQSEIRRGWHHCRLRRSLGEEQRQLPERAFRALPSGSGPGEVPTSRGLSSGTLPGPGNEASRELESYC
Procedure: For human GIPr, two different lines were used, shown as “hGIPr” and “hGIPr (C3)” in Table 11.
as §1, §2, §3, §4, §5, §6, §7

[3] = molecular target: T3, human glucagon receptor (GCGr) (Homo sapiens, UniProt P47871); assay: BSA-cAMP assay, cells expressing human glucagon receptor; details: batch 1 unless a batch is given, read-out: cAMP activity hGCGr (EC50)
T3 construct: expressed in transfected cells; host or cells: HEK293s or CHO cells
T3 sequence (P47871 26-477): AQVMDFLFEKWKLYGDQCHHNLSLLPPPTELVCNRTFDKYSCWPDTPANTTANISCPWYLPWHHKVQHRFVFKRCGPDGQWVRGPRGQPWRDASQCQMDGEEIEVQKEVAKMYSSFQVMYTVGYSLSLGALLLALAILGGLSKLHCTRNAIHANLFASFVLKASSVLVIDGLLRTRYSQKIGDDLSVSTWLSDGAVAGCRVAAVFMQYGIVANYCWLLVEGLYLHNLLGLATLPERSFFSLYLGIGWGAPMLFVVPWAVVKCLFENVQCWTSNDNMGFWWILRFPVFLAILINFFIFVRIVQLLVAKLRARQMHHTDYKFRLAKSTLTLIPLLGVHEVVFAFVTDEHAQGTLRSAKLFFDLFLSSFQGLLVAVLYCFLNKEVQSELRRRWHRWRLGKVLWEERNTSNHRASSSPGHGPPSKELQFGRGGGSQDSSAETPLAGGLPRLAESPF
Procedure: as §1, §2, §3, §4, §5, §6, §7

[4] = molecular target: T4, mouse GLP-1 receptor (mGLP-1r) (Mus musculus, UniProt O35659); assay: BSA-cAMP assay, cells expressing mouse GLP-1 receptor; details: BSA-cAMP assay; read-out: cAMP activity mGLP1r (EC50)
T4 construct: expressed in transfected cells; host or cells: HEK293s or CHO cells
T4 sequence (O35659 22-463): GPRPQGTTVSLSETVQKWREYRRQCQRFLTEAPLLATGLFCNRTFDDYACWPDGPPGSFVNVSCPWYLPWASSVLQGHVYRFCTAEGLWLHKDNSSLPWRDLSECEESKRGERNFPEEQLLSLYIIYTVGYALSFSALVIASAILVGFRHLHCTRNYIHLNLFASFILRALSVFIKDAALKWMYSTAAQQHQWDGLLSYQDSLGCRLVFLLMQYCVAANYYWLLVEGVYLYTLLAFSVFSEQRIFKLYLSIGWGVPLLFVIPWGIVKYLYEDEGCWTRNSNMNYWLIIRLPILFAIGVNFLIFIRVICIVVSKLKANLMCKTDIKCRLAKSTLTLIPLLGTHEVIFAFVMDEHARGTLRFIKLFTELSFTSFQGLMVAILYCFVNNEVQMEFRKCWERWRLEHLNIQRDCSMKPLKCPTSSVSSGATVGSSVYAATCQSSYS
Procedure: as §1, §2, §3, §4, §5, §6, §7
(§8) In order to be able to carry out in vivo studies in rodents, IP088 was tested for potency against the mouse receptors mGIPr and mGLP-1r as well as the rat receptors rGIPr and rGLP-1r, using cells expressing the respective receptors in the cAMP assay described above.

[5] = molecular target: T5, mouse GIP receptor (mGIPr) (Mus musculus, UniProt Q0P543); assay: BSA-cAMP assay, cells expressing mouse GIP receptor; details: BSA-cAMP assay; read-out: cAMP activity mGIPr (EC50)
T5 construct: expressed in transfected cells; host or cells: HEK293s or CHO cells
T5 sequence (Q0P543 19-460): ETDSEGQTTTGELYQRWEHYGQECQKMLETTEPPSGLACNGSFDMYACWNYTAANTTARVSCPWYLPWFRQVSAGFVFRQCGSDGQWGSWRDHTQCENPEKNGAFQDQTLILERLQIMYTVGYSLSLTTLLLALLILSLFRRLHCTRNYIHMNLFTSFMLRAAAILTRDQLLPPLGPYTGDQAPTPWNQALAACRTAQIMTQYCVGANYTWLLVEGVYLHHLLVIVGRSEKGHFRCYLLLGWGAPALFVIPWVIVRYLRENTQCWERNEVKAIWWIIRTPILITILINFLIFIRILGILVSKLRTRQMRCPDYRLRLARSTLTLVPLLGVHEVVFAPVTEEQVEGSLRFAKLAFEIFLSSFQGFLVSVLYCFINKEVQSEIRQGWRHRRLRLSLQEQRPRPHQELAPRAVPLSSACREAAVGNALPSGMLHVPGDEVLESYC
Procedure: as §1, §2, §3, §4, §5, §6, §7, §8

[6] = molecular target: T6, rat GLP-1 receptor (rGLP-1r) (Rattus norvegicus, UniProt P32301); assay: BSA-cAMP assay, cells expressing rat GLP-1 receptor; details: BSA-cAMP assay; read-out: cAMP activity rGLP1r (EC50)
T6 construct: expressed in transfected cells; host or cells: HEK293s or CHO cells
T6 sequence (P32301 22-463): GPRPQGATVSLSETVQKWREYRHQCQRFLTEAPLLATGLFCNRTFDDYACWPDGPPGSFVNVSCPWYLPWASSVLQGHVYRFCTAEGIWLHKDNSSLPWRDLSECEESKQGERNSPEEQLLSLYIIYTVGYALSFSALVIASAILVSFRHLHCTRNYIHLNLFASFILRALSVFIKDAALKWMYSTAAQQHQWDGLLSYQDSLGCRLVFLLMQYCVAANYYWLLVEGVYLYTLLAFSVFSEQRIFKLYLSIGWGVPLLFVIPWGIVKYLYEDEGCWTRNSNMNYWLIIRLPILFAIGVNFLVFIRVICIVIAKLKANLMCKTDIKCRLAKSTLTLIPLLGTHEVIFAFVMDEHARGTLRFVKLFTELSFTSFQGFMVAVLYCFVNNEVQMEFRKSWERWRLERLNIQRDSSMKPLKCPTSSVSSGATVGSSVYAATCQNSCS
Procedure: as §1, §2, §3, §4, §5, §6, §7, §8

rat GIP receptor (rGIPr) = molecular target: T7, rat GIP receptor (rGIPr) (Rattus norvegicus, UniProt P43219); assay: BSA-cAMP assay, cells expressing rat GIP receptor; details: BSA-cAMP assay; read-out: cAMP activity rGIPr (EC50)
T7 construct: expressed in transfected cells; host or cells: HEK293s or CHO cells
T7 sequence (P43219 19-455): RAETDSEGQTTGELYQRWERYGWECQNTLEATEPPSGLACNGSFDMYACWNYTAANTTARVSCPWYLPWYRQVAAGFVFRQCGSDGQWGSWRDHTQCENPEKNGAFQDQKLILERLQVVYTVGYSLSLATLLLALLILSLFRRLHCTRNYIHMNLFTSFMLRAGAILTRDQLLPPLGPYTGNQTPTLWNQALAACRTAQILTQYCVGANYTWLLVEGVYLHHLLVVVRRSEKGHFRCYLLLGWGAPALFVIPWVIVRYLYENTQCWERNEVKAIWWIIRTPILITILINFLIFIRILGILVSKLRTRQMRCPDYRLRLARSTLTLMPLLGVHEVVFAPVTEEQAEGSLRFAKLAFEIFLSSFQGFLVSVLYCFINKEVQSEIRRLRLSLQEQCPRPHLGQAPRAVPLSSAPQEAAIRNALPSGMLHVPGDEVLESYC
Procedure: as §1, §2, §3, §4, §5, §6, §7, §8

T1 sequence (P43220 24-463): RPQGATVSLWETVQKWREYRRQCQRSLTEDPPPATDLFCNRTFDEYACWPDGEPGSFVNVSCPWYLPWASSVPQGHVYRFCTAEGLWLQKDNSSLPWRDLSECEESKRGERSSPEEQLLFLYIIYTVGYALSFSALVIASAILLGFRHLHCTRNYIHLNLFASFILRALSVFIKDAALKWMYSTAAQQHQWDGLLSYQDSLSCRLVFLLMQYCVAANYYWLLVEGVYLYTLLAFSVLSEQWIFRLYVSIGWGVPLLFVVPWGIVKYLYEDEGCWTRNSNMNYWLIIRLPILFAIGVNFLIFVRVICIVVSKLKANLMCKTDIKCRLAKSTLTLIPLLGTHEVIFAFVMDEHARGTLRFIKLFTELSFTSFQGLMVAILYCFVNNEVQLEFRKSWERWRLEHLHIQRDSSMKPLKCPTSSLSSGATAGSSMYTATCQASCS

Substance	pEC50 [1]	pEC50 [2]	pEC50 [3]	pEC50 [4]	pEC50 [5]	pEC50 [6]	pEC50 (rat GIP receptor (rGIPr))
IP196 (HGEGTFTSDVSSYLEGQAAKEFIAWLVKGAAAGGSGSTASSGSGSATGGGGAPEF; /note=“Description of Artificial Sequence Synthetic Peptide-linker-hinge polypeptide”)	10.14	–	–	–	–	–	–
IP231 (HGEGTFTSDVSSYLEEQAAKEFIAWLVKGGGGGGSGGGGSGGGGSGGGGSATHTCPPC; also: forms dimer via hinge disulfides)	10.17	–	–	–	–	–	–
IP238 (HGEGTFTSDVSSYLEGQAAKEFIAWLVKGGGGGGSGGGGSGGGGSAESKYGPPCPPC; also: forms dimer via hinge disulfides)	10.24	6.51	–	–	–	–	–
IP275: Fc fusion, IgG1-TM, SEQ ID NO:332; agonist peptide YSEGTFTSDYSKLLEKEAQRLFIEWLLKGP (YSEGTFTSDYSKLLEKEAQRLFIEWLLKGPGGGGGSGGGGSGGGGSGGGGSATHTCPPC)	9.04	11.06	6.64	8.77	9.59	10.21	10.85

The remaining substances from weak to strong by pEC50 [1], led by results:

pEC50 [1]	pEC50 [2]	pEC50 [3]	pEC50 [4]	pEC50 [5]	pEC50 [6]	pEC50 (rat GIP receptor (rGIPr))	Substance
8.47	11.00	6.62	8.17	9.36	9.64	10.70	IP289: Fc fusion, IgG1-TM(ΔK), SEQ ID NO:342; agonist peptide YSEGTFTSDYSKLLEKEAERLFIEWLLKGP (YSEGTFTSDYSKLLEKEAERLFIEWLLKGPGGGGGSGGGGSGGGGSGGGGSATHTCPPC)
10.19	6.35	6.11	–	–	–	–	IP193 (HGEGTFTSDVSSYLEGQAAKEFIAWLVKGAAAGGSGSTASSGSGSATGGGGCPPCPAPEF; also: forms dimer via hinge disulfides)
